The record followed here is paper PMC7608592, “Allomorphy as a mechanism of post-translational control of enzyme activity” (Nature Communications, 2020).

Data set [1] addresses T1, β-phosphoglucomutase (βPGM) (Lactococcus lactis, UniProt P71447, P146A).
T1 construct: gene pgmB
Kind of data set: NMR: phosphorylation of the purified enzyme (B^P formed) and turnover of F16BP. The class given is biochemical.

The target of data set [2] is T2, β-phosphoglucomutase (βPGM) (Lactococcus lactis, UniProt P71447).
T2 construct: gene pgmB
Kind of data set: real-time NMR (A:F16BP complex observed); phosphorylating agent in coupled assay. The class given is binding.

Data set [3] deals with T2, β-phosphoglucomutase (βPGM). In words: X-ray crystal structure at […] Å; NMR titration (1H15N-TROSY). The class given is binding.
Data set [4] concerns O=P(O)(O)OC[C@H]1O[C@@H](OP(=O)(O)O)[C@H](O)[C@@H](O)[C@@H]1O. Kind of data set: purified protein. Particulars: Mg2+ active site.
In data set [5] the test system is O=P(O)(O)O[C@@H]1O[C@H](CO)[C@@H](O)[C@H](O)[C@H]1O. Kind of data set: purified protein. Particulars: Mg2+ active site.

In the case of `O=P(O)(O)OC[C@H]1OC(O)(COP(=O)(O)O)[C@@H](O)[C@@H]1O` (mixture of isomers) [F16BP, fructose 1,6-bisphosphate], the “NMR: phosphorylation of the purified enzyme (B^P formed) and turnover of F16BP” value in data set [1] is “On addition of F16BP to βPGMP146A, the two dominant species observed are conformer B and B^P”. The “real-time NMR (A:F16BP complex observed); phosphorylating agent in coupled assay” value in data set [2] is reported as “A minor population of the A:F16BP complex is also present”.
Consider `O=C(O)CC(O)(CC(=O)O)C(=O)O` [citrate], for which, in data set [3], the “X-ray crystal structure at 2.1 Å; NMR titration (1H15N-TROSY)” value is “Citrate is coordinated in the active site by residues T16, H20, V47–R49 and A115–K117 and mimics substrate binding”.
The Km is the concentration of substrate that gives half-maximal velocity. “β-phosphoglucomutase (βPGM) (Lactococcus lactis subsp. lactis Il1403)”: the Km in data set [4] turned out to be 8.5 ± 0.3 µM; in data set [5], 91 ± 4 µM.
The like results for “β-phosphoglucomutase (βPGM) (Lactococcus lactis subsp. lactis Il1403; P146A)” were, in that order, 175 ± 3 µM and 157 ± 3 µM.
